Molecular target: GST-tagged SRC, bacterially purified (human, UniProt P12931-1 1-536)
Assay: pull-down

B1: Flag-tagged MEF2D protein purified from HEK293T cells (natural protein, human, UniProt Q14814-1 1-521, looked up)
chain: MGRKKIQIQRITDERNRQVTFTKRKFGLMKKAYELSVLCDCEIALIIFNHSNKLFQYASTDMDKVLLKYTEYNEPHESRTNADIIETLRKKGFNGCDSPEPDGEDSLEQSPLLEDKYRRASEELDGLFRRYGSTVPAPNFAMPVTVPVSNQSSLQFSNPSGSLVTPSLVTSSLTDPRLLSPQQPALQRNSVSPGLPQRPASAGAMLGGDLNSANGACPSPVGNGYVSARASPGLLPVANGNSLNKVIPAKSPPPPTHSTQLGAPSRKPDLRVITSQAGKGLMHHLTEDHLDLNNAQRLGVSQSTHSLTTPVVSVATPSLLSQGLPFSSMPTAYNTDYQLTSAELSSLPAFSSPGGLSLGNVTAWQQPQQPQQPQQPQPPQQQPPQPQQPQPQQPQQPQQPPQQQSHLVPVSLSNLIPGSPLPHVGAALTVTTHPHISIKSEPVSPSRERSPAPPPPAVFPAARPEPGDGLSSPAGGSYETGDRDDGRGDFGPTLGLLRPAPEPEAEGSAVKRMRLDTWTLK
- binding result: binds
